Assay results as given in paper PMC5774825.

Tests used:
[1] = molecular target: Ab-WbjB (UDP-N-acetylglucosamine 4,6-dehydratase, WbjB) of Acinetobacter baumannii D1279779 (Acinetobacter baumannii strain D1279779); test: SEC; Superdex 200 10/300 GL, Buffer A (50 mM HEPES pH 7.5, 200 mM NaCl, 5% v/v glycerol), 0.5 mL/min; hexamer
[2] = molecular target: Ab-WbjB (UDP-N-acetylglucosamine 4,6-dehydratase, WbjB) of Acinetobacter baumannii D1279779 (Acinetobacter baumannii strain D1279779); test: crystal structure; Se-Met Ab-WbjB, space group P212121, six chains in the asymmetric unit, NADP+ bound to each chain, 2.65 Å
[3] = molecular target: Ab-WbjB (UDP-N-acetylglucosamine 4,6-dehydratase, WbjB) of Acinetobacter baumannii D1279779 (Acinetobacter baumannii strain D1279779); test: SEC; some laboratory samples of Ab-WbjB, presumed by the authors to hold less NADP+; dimer form in solution (example in S1 Fig)

Ab-WbjB (UDP-N-acetylglucosamine 4,6-dehydratase, WbjB) of Acinetobacter baumannii D1279779 (enzyme)
stoichiometry N [1]: 6 | stoichiometry N [2]: 6 | stoichiometry N [3]: 2
